Measurements reported in patent US20250134988A1.

Target: CoV2_5P prefusion-stabilized spike protein (SARS-CoV-2) (UniProt P0DTC2)
Experiment: ELISA

CR3022 (antibody) showed an EC50 (read off the curve) of 0.02 µg/mL.
